First the molecules themselves.
B1: TPR 5TU (parent)
chain: GGAUCUUCUCGAUCUAACAAAAAAGACAAAUCUGCCACAAAGCUUGAGAGCAUCUUCGGAUGCAGAGGCGGCAGCCUUCGGUGGCGCGAUAGCGCCAACGUUCUCAACUAUGACACGCAAAACGCGUGCUCCGUUGAAUGGAGUUUAUCAUG

This sample holds only a part of the variants without activity. Where only a bound is given, the exact number is not on record here.

In this series the parent is B1. Kind of series: polymerase ribozyme fitness, log enrichment relative to wild type (log ratio); higher = more active; in vitro selection for triplet polymerase activity. The procedure, abridged:
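After PCR construction and transcription, each subunit's mutant library from a heterodimeric triplet polymerase ribozyme was annealed with a biotinylated primer, the partner subunit and triplets. Incubation was frozen, at −7 °C, and extended constructs were gel-excised, bound to streptavidin beads and amplified by RT-PCR, in one selection round done in triplicate. Fitness is the logarithm of a genotype's enrichment divided by that of the wild type, from inverse-variance-weighted replicate averages of Illumina-sequenced inputs and outputs. The base of the logarithm is 2, and genotypes needed ≥10 input reads and ≥1 read per output.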
Regarding A89G G124U, the “polymerase ribozyme fitness (log ratio)” value is -1.93. The same measure for G88U C99U: -4.12. The same measure for G88U C99A: -4.1; for G92A G100C: -4.07; for A89G U146G C149G: -4.1. The same measure for G88U G141U: -3.23.

Regarding U90A A106C A121U, the “polymerase ribozyme fitness (log ratio)” value is no more than -4.2. Then G92U C93U A138C, with no more than -4.2; and A89G C125A, with -1.77; and A89C C103A, with -2.11. The same measure for A91G G92A C125G C129G A137G: no more than -4.2. The same measure for A89G A98U: -1.66; for G88A G124C: no more than -4.2; for A91U U109G G141U: no more than -4.2. As for C93A C105U, the “polymerase ribozyme fitness (log ratio)” value is -2.67. Then C93A A138U, with -4.18. For the variant C93A C132A, the “polymerase ribozyme fitness (log ratio)” value was no more than -4.2. Then U90A C99U C103G G140A, with no more than -4.2; and C93A A106G, with -1.9. In the case of C93A A138G G143C, the “polymerase ribozyme fitness (log ratio)” value is -3.66.

For the variant A91U U145A, the “polymerase ribozyme fitness (log ratio)” value is -4.

For C93A U146C, the “polymerase ribozyme fitness (log ratio)” value was -2.18. Consider C93A U146G, for which the “polymerase ribozyme fitness (log ratio)” value is -3.27. Then G92A G117C, with -2.82; and A91U G94A G128U, with no more than -4.2. Then A91C A120C, with no more than -4.2. Turning to A91G A121U, the “polymerase ribozyme fitness (log ratio)” value is -3.01.

As to C93A U102C C105A C125G G143U U144A, the “polymerase ribozyme fitness (log ratio)” value was no more than -4.2. With G88U C116U A137C C149G, the “polymerase ribozyme fitness (log ratio)” value was no more than -4.2. Then G92A C105A A147U, with -4.16; and G92U C125U, with -1.4; and A89U A142C U146C A150U, with -3.99.

C93A G124C U127C G133C U135A U148G: the “polymerase ribozyme fitness (log ratio)” value is no more than -4.2.

A89C C95U: the “polymerase ribozyme fitness (log ratio)” value was -1.49.

Regarding A89C C95G, the “polymerase ribozyme fitness (log ratio)” value was -3.24. Then A91C U139G, with no more than -4.2. Then C93A A142U C149A, with no more than -4.2. Then A91C C125A U135C, with no more than -4.2; and A89U C95G A122G, with -1.39; and G92C U139A, with -4.2. As for A89C A142G, the “polymerase ribozyme fitness (log ratio)” value was -1.52.

Take A89G A122C: the “polymerase ribozyme fitness (log ratio)” value is -1.77. As for A89U G143U, the “polymerase ribozyme fitness (log ratio)” value is -2.38. The same measure for A91G G126A G141A: -3.67; for C93A A98U C125G C131U: -2.4. Take G88A G94A C99G C103G U104A A107G: the “polymerase ribozyme fitness (log ratio)” value is no more than -4.2. The same measure for A91C C95U C103G C116G: no more than -4.2; for G92U G133U: -3.41; for U90C C95A U102A C132A: no more than -4.2. Then G92A C99U G117U U151G, with no more than -4.2. Then A91U A142U, with -3.67.

As for G92U G136C, the “polymerase ribozyme fitness (log ratio)” value was -3.44. The same measure for A91U A147G: no more than -4.2; for G92C C116G: -1.52. The same measure for G92C U111C: -3.45; for A89U A91U C93U C95A: no more than -4.2; for G88C C105G G128C A142C: no more than -4.2. Take G92A U148C: the “polymerase ribozyme fitness (log ratio)” value was -4.02. Then A89U A91U, with no more than -4.2; and G92U U101G, with 0.0893; and A91G C116G, with -1.65. Then G88C C108G, with no more than -4.2. Then U90A A91C U102G U151G, with no more than -4.2; and C93A C95U, with -3.37. Consider C93A C95G, for which the “polymerase ribozyme fitness (log ratio)” value is no more than -4.2. Then A91G A120G, with -2.98; and C93A A106C A120U, with -2.8; and C93A G126A A137G, with -2.09.

Regarding A89C A150G, the “polymerase ribozyme fitness (log ratio)” value was -0.921. The same measure for U90G G124C: no more than -4.2; for A89U A121U: -0.72.

In the case of A91C A120G G126A, the “polymerase ribozyme fitness (log ratio)” value was no more than -4.2. Then A89C C105U, with 0.174; and G92U C96A G136C, with -3.56; and A89C C99U C114U, with -2.63. Then A89U U109G, with -0.917; and G88A C105A A147C U151G, with no more than -4.2. The same measure for A89G G126U U148G: -4.06. As for A91G C131A A137C G143C, the “polymerase ribozyme fitness (log ratio)” value is no more than -4.2. Then A91C G126A, with -4.03; and C93A A107U G126C A150G, with no more than -4.2. The same measure for G92A G124C: -3.03; for A91G A113C U127C U146G: no more than -4.2. The same measure for G88C C114U G141U: no more than -4.2.

Source of the values: the RNAGym collection of RNA variant scans (doi:10.1073/pnas.2313332121).
